This is an account of results in patent US20190112392A1.

Assay [1] addresses human TCR(2XN9)/CD3 expressed on CHO-K1 cells (human). The assay can be described thus: flow cytometry, CHO-K1 human TCR(2XN9)/CD3 cells.
Assay [2] has as its target human TCR(2IAN)/CD3 expressed on HEK293H cells (human). The assay can be described thus: flow cytometry, HEK293H human TCR(2IAN)/CD3 cells. A general note: Flow cytometry measures light scatter and fluorescence of single cells or particles in a stream.
In assay [3] the target is soluble recombinant human TCR alpha/beta (2XN9)-zipper protein (human). The assay can be described thus: ELISA, coated soluble human TCR(2XN9)-zipper. (In an ELISA, binding on a coated surface is turned into a signal by an enzyme label.)
The target in assay [4] is EGFR and CEACAM5 co-expressed on LS174T and LoVo cells (UniProt P00533). In words: flow cytometry, LoVo cells.
Assay [5] has the same target. In words: flow cytometry, LS174T cells; LS174T cells.
For assay [6] the target is unchanged. In words: flow cytometry, LS174T cells.
Assay [7] shares this target. In words: cell-based or functional assay.
Assay [8] has as its target soluble recombinant human TCR alpha/beta (2XN9)-zipper protein (human). The assay can be described thus: BLI (Octet RED384), immobilized human sTCR(2XN9)-zipper, 1:1 model. On the technique in general: In BLI a coated tip is dipped into the sample, and binding shifts an interference pattern.

B1: T017000068 (bispecific antibody)
chain: EVQLVESGGGLVQPGGSLRLSCTFSGGTFSSYTMGWFRQAPGKEREFVAEVRWGGVTTYSNSLKDRFSISEDSVKNAVYLQMNSLKPEDTAVYYCAAVRQMYMTVVPDYWGQGTLVTVSSGGGGSGGGGSGGGGSGGGGSGGGGSGGGGSGGGGSEVQLVESGGGLVQPGGSLRLSCITSGETFKINIWGWYRQAPGKQRELVASLTIGGATNYADSVKGRFTISEDSAKNTVYLQMNSLKPEDTAVYFCNAKSRLYPYDYWGQGTLVTVSSGAADYKDHDGDYKDHDIDYKDDDDKGAAHHHHHH
The term EC50 denotes the concentration at which the effect is half-maximal. Molecule B1 yielded an EC50 in assay [1] of 190 nM.

B2: T017000031 (bispecific antibody)
chain: EVQLVESGGGLVQPGGSLRLSCITSGETFKINIWGWYRQAPGKQRELVASLTIGGATNYADSVKGRFTISEDSAKNTVYLQMNSLKPEDTAVYFCNAKSRLYPYDYWGQGTLVTVSSGGGGSGGGGSGGGGSGGGGSGGGGSGGGGSGGGGSEVQLVESGGGLVQPGGSLRLSCTFSGGTFSSYTMGWFRQAPGKEREFVAEVRWGGVTTYSNSLKDRFSISEDSVKNAVYLQMNSLKPEDTAVYYCAAVRQMYMTVVPDYWGQGTLVTVSSGAADYKDHDGDYKDHDIDYKDDDDKGAAHHHHHH
For the molecule B2, in assay [1], the EC50 was found to be 20 nM.

B3: T0170068G05 (VHH, not shown: small tags and cut ends)
VHH: VQLVEESGGGLVQPGGSLRLSCITSGETFKINIWGWYRQAPGKQRELVASLTIGGATNYADSVKGRFTISEDSAKNTVYLQMNSLKPEDTAVYFCNAKSRIYPYDYWGRGTQVTVSS
For B3, the EC50 is > 100 nM in assay [2], 12 nM in assay [1] and 16 nM in assay [3]. For the same molecule, the MCF at 1 µM in assay [2] was determined as 31200 MCF.

B4: T017000042 (bispecific antibody)
chain: EVQLVESGGGLVQPGGSLRLSCAASGDVHKINILGWYRQAPAKEREMVAHITIGDATDYADSAKGRFTISRDEAKNMVYLQMNSLKPEDTAVYFCRAYSRIYPYNYWGQGTLVTVSSGGGGSGGGGSGGGGSGGGGSGGGGSGGGGSGGGGSEVQLVESGGGLVQPGGSLRLSCTFSGGTFSSYTMGWFRQAPGKEREFVAEVRWGGVTTYSNSLKDRFSISEDSVKNAVYLQMNSLKPEDTAVYYCAAVRQMYMTVVPDYWGQGTLVTVSSGAADYKDHDGDYKDHDIDYKDDDDKGAAHHHHHH
For B4, the EC50 in assay [1] was determined as 17 nM.

B5: T017000074 (bispecific antibody)
chain: EVQLVESGGGLVQPGGSLRLSCVASGDVHKINFLGWYRQAPGKEREKVAHISIGDQTDYADSAKGRFTISRDESKNMVYLQMNSLKPEDTAVYFCRAFSRIYPYDYWGQGTLVTVSSGGGGSGGGGSGGGGSGGGGSGGGGSGGGGSGGGGSEVQLVESGGGLVQPGGSLRLSCTFSGGTFSSYTMGWFRQAPGKEREFVAEVRWGGVTTYSNSLKDRFSISEDSVKNAVYLQMNSLKPEDTAVYYCAAVRQMYMTVVPDYWGQGTLVTVSSGAADYKDHDGDYKDHDIDYKDDDDKGAAHHHHHH
In turn, B5 returned a concentration for a half-maximal effect (EC50) in assay [1] of 16 nM.

B6: T017000107 (protein)
chain: EVQLVESGGGLVQAGGSLRLSCAASGRTFSSYVMGWFRQATGKEREFVATIAWDSGSTYYADSVKGRFTISRDNAKNTVHLQMNSLKPEDTAVYYCAASYNVYYNNYYYPISRDEYDYWGQGTLVTVSSGGGGSGGGGSGGGGSGGGGSGGGGSGGGGSGGGGSEVQLVESGGGSVQAGGSLRLSCAASGDTYGSYWMGWFRQAPGKEREGVAAINRGGGYTVYADSVKGRFTISRDTAKNTVYLQMNSLRPDDTADYYCAASGVLGGLHEDWFNYWGQGTLVTVSSGGGGSGGGGSGGGGSGGGGSGGGGSGGGGSGGGGSEVQLVESGGGLVQPGGSLRLSCVASGDVHKINFLGWYRQAPGKEREKVAHISIGDQTDYADSAKGRFTISRDESKNMVYLQMNSLKPEDTAVYFCRAFSRIYPYDYWGQGTLVTVSSGAADYKDHDGDYKDHDIDYKDDDDKGAAHHHHHH
As to B6, in assay [4], the EC50 is 3.2 nM and the Top amounted to 88600. The molecule further showed an EC50 in assay [5] of 11 nM. Also, the Top in assay [6] was 64600. In addition, in assay [7], the IC50, xCELLigence human T cell mediated killing of LS174T cells, E:T 15, 30-40 h was 10 nM; the IC50, xCELLigence human T cell mediated killing of LS174T cells, E:T 15, 50-60 h came to 5.3 nM; the IC50, xCELLigence human T cell mediated killing of LoVo cells, E:T 15, 30-40 h stood at 0.3 nM; the IC50, xCELLigence human T cell mediated killing of LoVo cells, E:T 15, 50-60 h came out at 0.061 nM.

B7: T017000051 (bispecific antibody)
chain: EVQLVESGGGLVQPGGSLRLSCTFSGGTFSSYTMGWFRQAPGKEREFVAEVRWGGVTTYSNSLKDRFSISEDSVKNAVYLQMNSLKPEDTAVYYCAAVRQMYMTVVPDYWGQGTLVTVSSGGGGSGGGGSGGGGSGGGGSGGGGSGGGGSGGGGSEVQLVESGGGLVQPGGSLRLSCAASGEIGRINFYRWYRQAPGNQREVVATITIADKTDYADSAKGRFTISRDESRNMVYLQMSSLKPEDTAVYFCHAGSRLYPYDYWGQGTLVTVSSGAADYKDHDGDYKDHDIDYKDDDDKGAAHHHHHH
On to B7, for which, in assay [1], the EC50 worked out at 460 nM.

B8: T0170055A02 (VHH, not shown: small tags and cut ends)
VHH: EVQLVESGGGLVQPGGSLRLSCAASGDVHKINILGWYRQAPAKEREMVAHITIGDATDYADSAKGRFTISRDEAKNMVYLQMNSLKPEDTAVYFCRAYSRIYPYNYWGQGTLVTVSS
The term kon denotes the rate constant with which the complex forms. As to B8, the MCF at 1 µM in assay [2] was found to be 91200 MCF. Moreover, the kon in assay [8] came out at 49000 M⁻¹ s⁻¹.

B9: T0170056G05 (VHH, not shown: small tags and cut ends)
VHH: EVQLVESGGGLVQPGGSLRLSCVASGDVHKINFLGWYRQAPGKEREKVAHISIGDQTDYADSAKGRFTISRDESKNMVYLQMNSLKPEDTAVYFCRAFSRIYPYDYWGQGTLVTVSS
With B9, the MCF at 1 µM in assay [2] was 86500 MCF. Further, the kon in assay [8] was 50000 M⁻¹ s⁻¹.

B10: T0170061G01 (VHH, not shown: small tags and cut ends)
VHH: EVQLVESGGGLVQPGGSLRLSCAASGEIGRINFYRWYRQAPGNQREVVATITIADKTDYADSAKGRFTISRDESRNMVYLQMSSLKPEDTAVYFCHAGSRLYPYDYWGQGTQVTVSS
As to B10, the EC50 was > 100 nM in assay [2], 31 nM in assay [1] and 52 nM in assay [3]. Also, in assay [2], the MCF at 1 µM worked out at 10000 MCF.

B11: T017000038 (bispecific antibody)
chain: EVQLVESGGGLVQPGGSLRLSCAASGEIGRINFYRWYRQAPGNQREVVATITIADKTDYADSAKGRFTISRDESRNMVYLQMSSLKPEDTAVYFCHAGSRLYPYDYWGQGTLVTVSSGGGGSGGGGSGGGGSGGGGSGGGGSGGGGSGGGGSEVQLVESGGGLVQPGGSLRLSCTFSGGTFSSYTMGWFRQAPGKEREFVAEVRWGGVTTYSNSLKDRFSISEDSVKNAVYLQMNSLKPEDTAVYYCAAVRQMYMTVVPDYWGQGTLVTVSSGAADYKDHDGDYKDHDIDYKDDDDKGAAHHHHHH
Regarding B11, the 50% effective concentration (EC50) in assay [1] stood at 17 nM.

B12: T017000055 (bispecific antibody)
chain: EVQLVESGGGLVQPGGSLRLSCTFSGGTFSSYTMGWFRQAPGKEREFVAEVRWGGVTTYSNSLKDRFSISEDSVKNAVYLQMNSLKPEDTAVYYCAAVRQMYMTVVPDYWGQGTLVTVSSGGGGSGGGGSGGGGSGGGGSGGGGSGGGGSGGGGSEVQLVESGGGLVQPGGSLRLSCAASGDVHKINILGWYRQAPAKEREMVAHITIGDATDYADSAKGRFTISRDEAKNMVYLQMNSLKPEDTAVYFCRAYSRIYPYNYWGQGTLVTVSSGAADYKDHDGDYKDHDIDYKDDDDKGAAHHHHHH
Turning to B12, the EC50 in assay [1] amounted to 110 nM.

B13: T017000076 (bispecific antibody)
chain: EVQLVESGGGLVQPGGSLRLSCTFSGGTFSSYTMGWFRQAPGKEREFVAEVRWGGVTTYSNSLKDRFSISEDSVKNAVYLQMNSLKPEDTAVYYCAAVRQMYMTVVPDYWGQGTLVTVSSGGGGSGGGGSGGGGSGGGGSGGGGSGGGGSGGGGSEVQLVESGGGLVQPGGSLRLSCVASGDVHKINFLGWYRQAPGKEREKVAHISIGDQTDYADSAKGRFTISRDESKNMVYLQMNSLKPEDTAVYFCRAFSRIYPYDYWGQGTLVTVSSGAADYKDHDGDYKDHDIDYKDDDDKGAAHHHHHH
Consider B13, for which, in assay [1], the EC50 was determined as 78 nM.
